Experimental data as given in the Human Domainome abundance scans (Beltran et al. 2025).
± gives the uncertainty stated by the source.

B1: Ras GTPase-activating protein 1, residues 281 to 341; numbered along this chain, P20936 (parent)
chain: RRRVRAILPYTKVPDTDEISFLKGDMFIVHNELEDGWMWVTNLRTDEQGLIVEDLVEEVGR

Variants of: B1
Test: abundance fitness (aPCA) (normalised: wild type 0, dead -1); higher = more abundant; growth selection in yeast, the domain comes from the species named
Conditions: Homo sapiens

Point of comparison: RRRVRAILPYTKVPDTDEISFLKGDMFIVHNELDDGWMWVTNLRTDEQGLIVEDLVEEVGR [E34D], abundance fitness -0.033 ± 0.034. Against it:
- RRRVRAILPYTKVPDTDEISFLKGDMFIVHPELEDGWMWVTNLRTDEQGLIVEDLVEEVGR [N31P] — lower, -0.841 ± 0.068
- RRRVRAILPYTKVPDTDEISFLKGDMFIVHAELEDGWMWVTNLRTDEQGLIVEDLVEEVGR [N31A] — within error, -0.036 ± 0.032
- RRRVRAILPYTKVPDTDEISFLKGDMFIVHFELEDGWMWVTNLRTDEQGLIVEDLVEEVGR [N31F] — lower, -0.17 ± 0.029
- RRRVRAILPYTKVPDTDEISFLKGDMFIVHDELEDGWMWVTNLRTDEQGLIVEDLVEEVGR [N31D] — higher, 0.046 ± 0.033
- RRRVRAILPYTKVPDTDEISFLKGDMFIVHMELEDGWMWVTNLRTDEQGLIVEDLVEEVGR [N31M] — within error, -0.044 ± 0.051
- RRRVRAILPYTKVPDTDEISFLKGDMFIVHKELEDGWMWVTNLRTDEQGLIVEDLVEEVGR [N31K] — within error, 0.034 ± 0.06
- RRRVRAILPYTKVPDTDEISFLKGDMFIVHLELEDGWMWVTNLRTDEQGLIVEDLVEEVGR [N31L] — lower, -0.174 ± 0.029
- RRRVRAILPYTKVPDTDEISFLKGDMFIVHVELEDGWMWVTNLRTDEQGLIVEDLVEEVGR [N31V] — lower, -0.159 ± 0.028
- RRRVRAILPYTKVPDTDEISFLKGDMFIVHTELEDGWMWVTNLRTDEQGLIVEDLVEEVGR [N31T] — within error, -0.046 ± 0.03
- RRRVRAILPYTKVPDTDEISFLKGDMFIVHGELEDGWMWVTNLRTDEQGLIVEDLVEEVGR [N31G] — within error, -0.072 ± 0.028
- RRRVRAILPYTKVPDTDEISFLKGDMFIVHYELEDGWMWVTNLRTDEQGLIVEDLVEEVGR [N31Y] — within error, -0.057 ± 0.029
- RRRVRAILPYTKVPDTDEISFLKGDMFIVHNELYDGWMWVTNLRTDEQGLIVEDLVEEVGR [E34Y] — lower, -0.188 ± 0.034
- RRRVRAILPYTKVPDTDEISFLKGDMFIVHNELQDGWMWVTNLRTDEQGLIVEDLVEEVGR [E34Q] — within error, 0.074 ± 0.073
- RRRVRAILPYTKVPDTDEISFLKGDMFIVHNELLDGWMWVTNLRTDEQGLIVEDLVEEVGR [E34L] — lower, -0.182 ± 0.033
- RRRVRAILPYTKVPDTDEISFLKGDMFIVHNELRDGWMWVTNLRTDEQGLIVEDLVEEVGR [E34R] — higher, 0.065 ± 0.034
- RRRVRAILPYTKVPDTDEISFLKGDMFIVHNELADGWMWVTNLRTDEQGLIVEDLVEEVGR [E34A] — within error, 0.023 ± 0.04
- RRRVRAILPYTKVPDTDEISFLKGDMFIVHNELWDGWMWVTNLRTDEQGLIVEDLVEEVGR [E34W] — lower, -0.28 ± 0.066
- RRRVRAILPYTKVPDTDEISFLKGDMFIVHNELNDGWMWVTNLRTDEQGLIVEDLVEEVGR [E34N] — within error, -0.004 ± 0.032
- RRRVRAILPYTKVPDTDEISFLKGDMFIVHNELKDGWMWVTNLRTDEQGLIVEDLVEEVGR [E34K] — within error, -0.026 ± 0.064
- RRRVRAILPYTKVPDTDEISFLKGDMFIVHNELGDGWMWVTNLRTDEQGLIVEDLVEEVGR [E34G] — within error, -0.035 ± 0.03
- RRRVRAILPYTKVPDTDEISFLKGDMFIVHNELPDGWMWVTNLRTDEQGLIVEDLVEEVGR [E34P] — within error, 0.03 ± 0.048
- RRRVRAILPYTKVPDTDEISFLKGDMFIVHNELMDGWMWVTNLRTDEQGLIVEDLVEEVGR [E34M] — lower, -0.159 ± 0.089
- RRRVRAILPYTKVPDTDEISFLKGDMFIVHNELFDGWMWVTNLRTDEQGLIVEDLVEEVGR [E34F] — lower, -0.238 ± 0.031
- RRRVRAILPYTKVPDTDEISFLKGDMFIVHNELIDGWMWVTNLRTDEQGLIVEDLVEEVGR [E34I] — lower, -0.258 ± 0.037
- RRRVRAILPYTKVPDTDEISFLKGDMFIVHNELVDGWMWVTNLRTDEQGLIVEDLVEEVGR [E34V] — within error, -0.089 ± 0.03
- RRRVRAILPYTKVPDTDEISFLKGDMFIVHNELTDGWMWVTNLRTDEQGLIVEDLVEEVGR [E34T] — within error, -0.106 ± 0.041
- RRRVRAILPYTKVPDTDEISFLKGDMFIVHNELSDGWMWVTNLRTDEQGLIVEDLVEEVGR [E34S] — within error, -0.01 ± 0.028
- RRRVRAILPYTKVPDTDEISFLKGDMFIVHNEFEDGWMWVTNLRTDEQGLIVEDLVEEVGR [L33F] — within error, -0.042 ± 0.026
- RRRVRAILPYTKVPDTDEISFLKGDMFIVHNEAEDGWMWVTNLRTDEQGLIVEDLVEEVGR [L33A] — within error, -0.054 ± 0.031
- RRRVRAILPYTKVPDTDEISFLKGDMFIVHNEYEDGWMWVTNLRTDEQGLIVEDLVEEVGR [L33Y] — within error, -0.051 ± 0.027
- RRRVRAILPYTKVPDTDEISFLKGDMFIVHNEDEDGWMWVTNLRTDEQGLIVEDLVEEVGR [L33D] — lower, -0.182 ± 0.03
- RRRVRAILPYTKVPDTDEISFLKGDMFIVHNEPEDGWMWVTNLRTDEQGLIVEDLVEEVGR [L33P] — within error, -0.07 ± 0.039
- RRRVRAILPYTKVPDTDEISFLKGDMFIVHNEMEDGWMWVTNLRTDEQGLIVEDLVEEVGR [L33M] — within error, -0.099 ± 0.055
- RRRVRAILPYTKVPDTDEISFLKGDMFIVHNEIEDGWMWVTNLRTDEQGLIVEDLVEEVGR [L33I] — within error, -0.075 ± 0.028
- RRRVRAILPYTKVPDTDEISFLKGDMFIVHNEREDGWMWVTNLRTDEQGLIVEDLVEEVGR [L33R] — higher, 0.04 ± 0.03
- RRRVRAILPYTKVPDTDEISFLKGDMFIVHNECEDGWMWVTNLRTDEQGLIVEDLVEEVGR [L33C] — within error, -0.07 ± 0.026
- RRRVRAILPYTKVPDTDEISFLKGDMFIVHNETEDGWMWVTNLRTDEQGLIVEDLVEEVGR [L33T] — within error, -0.03 ± 0.03
- RRRVRAILPYTKVPDTDEISFLKGDMFIVHNEEEDGWMWVTNLRTDEQGLIVEDLVEEVGR [L33E] — lower, -0.153 ± 0.065
- RRRVRAILPYTKVPDTDEISFLKGDMFIVHNEGEDGWMWVTNLRTDEQGLIVEDLVEEVGR [L33G] — within error, -0.082 ± 0.027
- RRRVRAILPYTKVPDTDEISFLKGDMFIVHNENEDGWMWVTNLRTDEQGLIVEDLVEEVGR [L33N] — lower, -0.158 ± 0.03
- RRRVRAILPYTKVPDTDEISFLKGDMFIVHNESEDGWMWVTNLRTDEQGLIVEDLVEEVGR [L33S] — lower, -0.102 ± 0.025
- RRRVRAILPYTKVPDTDEISFLKGDMFIVHNEQEDGWMWVTNLRTDEQGLIVEDLVEEVGR [L33Q] — within error, 0.004 ± 0.05
- RRRVRAILPYTKVPDTDEISFLKGDMFIVHNEWEDGWMWVTNLRTDEQGLIVEDLVEEVGR [L33W] — lower, -0.136 ± 0.042
